# Test results as given in publication PMC8914513, “Inhibition of Protein Kinase CK2 Affects Thymidylate Synthesis Cycle Enzyme Level and Distribution in Human Cancer Cells” (Frontiers in Molecular Biosciences, 2022).
# B1: serine hydroxymethyltransferase, cytosolic (SHMT1), as used in MST (enzyme, UniProt P34896 1-483, looked up)
# chain: MTMPVNGAHKDADLWSSHDKMLAQPLKDSDVEVYNIIKKESNRQRVGLELIASENFASRAVLEALGSCLNNKYSEGYPGQRYYGGTEFIDELETLCQKRALQAYKLDPQCWGVNVQPYSGSPANFAVYTALVEPHGRIMGLDLPDGGHLTHGFMTDKKKISATSIFFESMPYKVNPDTGYINYDQLEENARLFHPKLIIAGTSCYSRNLEYARLRKIADENGAYLMADMAHISGLVAAGVVPSPFEHCHVVTTTTHKTLRGCRAGMIFYRKGVKSVDPKTGKEILYNLESLINSAVFPGLQGGPHNHAIAGVAVALKQAMTLEFKVYQHQVVANCRALSEALTELGYKIVTGGSDNHLILVDLRSKGTDGGRAEKVLEACSIACNKNTCPGDRSALRPSGLRLGTPALTSRGLLEKDFQKVAHFIHRGIELTLQIQSDTGVRATLKEFKERLAGDKYQAAVQALREEVESFASLFPLPGLPDF
# modifications: fluorescently labeled in the SHMT-TS titration only; unlabeled titrant in the other MST experiments
# notes: cytosolic serine hydroxymethyltransferase (SHMT1); Same preparation as m1; source: recombinant, overexpressed, purified (Ni-NTA, dialysis)
# B2: serine hydroxymethyltransferase, cytosolic (SHMT1), His-tagged, immobilised in QCM-D (enzyme, UniProt P34896 1-483, looked up)
# chain: MTMPVNGAHKDADLWSSHDKMLAQPLKDSDVEVYNIIKKESNRQRVGLELIASENFASRAVLEALGSCLNNKYSEGYPGQRYYGGTEFIDELETLCQKRALQAYKLDPQCWGVNVQPYSGSPANFAVYTALVEPHGRIMGLDLPDGGHLTHGFMTDKKKISATSIFFESMPYKVNPDTGYINYDQLEENARLFHPKLIIAGTSCYSRNLEYARLRKIADENGAYLMADMAHISGLVAAGVVPSPFEHCHVVTTTTHKTLRGCRAGMIFYRKGVKSVDPKTGKEILYNLESLINSAVFPGLQGGPHNHAIAGVAVALKQAMTLEFKVYQHQVVANCRALSEALTELGYKIVTGGSDNHLILVDLRSKGTDGGRAEKVLEACSIACNKNTCPGDRSALRPSGLRLGTPALTSRGLLEKDFQKVAHFIHRGIELTLQIQSDTGVRATLKEFKERLAGDKYQAAVQALREEVESFASLFPLPGLPDF
# notes: cytosolic serine hydroxymethyltransferase (SHMT1); Purified and stored with 50 uM pyridoxal phosphate; Captured by its His tag on the QSX340 sensor; also called His-tagged SHMT; His-tagged SHMT1; source: recombinant, overexpressed, purified (Ni-NTA, dialysis)
# What was measured:
# Conditions in all cases: both partners purified
# [1] = molecular target: B2; assay: QCM-D (quartz crystal microbalance with dissipation monitoring); two proteins: 5 uM His-tagged SHMT immobilised on His-tag capturing sensor QSX340; tagless ligand introduced (0.1-1.0 uM or 0.5-7.0 uM for TS, pTS or DHFR); 20 mM Tris-HCl pH 7.6, 100 mM (salt not given), 10 mM MgCl2, 0.05% Tween 20, 25 C, 200 ul/min; Langmuir isotherm fit
# [2] = molecular target: B1; assay: MST; two proteins in solution, Premium capillaries: labeled DHFR with SHMT 157 uM-4.79 nM; labeled SHMT with TS 62.0 uM-1.9 nM; labeled pTS with SHMT 157 uM-4.79 nM; Kd model fit
# [3] = molecular target: T1, labeled DHFR with a constant concentration of TS (9.0 uM), MST tri-complex assay ( | human, UniProt P00374 1-187; P04818 1-313, fluorescently labeled (dye and site not stated)); assay: MST; tri-complex: constant labeled DHFR and TS or pTS (9.0 uM), SHMT titrated 157 uM-4.79 nM; Kd model fit
# T1 construct: dihydrofolate reductase (DHFR); human thymidylate synthase (TS); A mixture at constant concentrations, not a purified complex; also called DHFR/TS; source: purified recombinant proteins mixed: constant labeled DHFR and 9.0 uM TS
# [4] = molecular target: T2, labeled DHFR with a constant concentration of pTS (9.0 uM), MST tri-complex assay ( | human, UniProt P00374 1-187); P04818 1-313, fluorescently labeled (dye and site not stated) | phosphorylated in vitro by CK2alpha; residue not stated for this preparation (the introduction names serine 124 as the site of CK2-mediated …); assay: as above
# T2 construct: dihydrofolate reductase (DHFR); human thymidylate synthase (TS); A mixture at constant concentrations, not a purified complex; also called DHFR/pTS; source: purified recombinant proteins mixed: constant labeled DHFR and 9.0 uM pTS
# [5] = molecular target: T3, mixture of DHFR and pTS introduced together in the three-protein QCM-D assay ( | human, UniProt P00374 1-187; P04818 1-313, phosphorylated in vitro by CK2alpha; residue not stated for this preparation (the introduction names serine 124 as the site of CK2-mediated phosphorylation of human TS)); assay: QCM-D (quartz crystal microbalance with dissipation monitoring); three proteins: 5 uM His-tagged SHMT1 immobilised on the sensor; mixture of fixed pTS (1.0 uM) and DHFR 0.25-2.0 uM introduced; 20 mM Tris-HCl pH 7.6, 100 mM (salt not given), 10 mM MgCl2, 0.05% Tween 20, 25 C, 200 ul/min; Langmuir isotherm fit
# T3 construct: dihydrofolate reductase (DHFR); human thymidylate synthase (TS); A mixture, not a purified preformed complex; only the DHFR concentration was varied; also called DHFR/pTS; fixed pTS and variable DHFR; source: purified recombinant proteins mixed: pTS fixed at 1.0 uM, DHFR 0.25-2.0 uM
# T3 sequence (P04818 whole entry, one chain of several): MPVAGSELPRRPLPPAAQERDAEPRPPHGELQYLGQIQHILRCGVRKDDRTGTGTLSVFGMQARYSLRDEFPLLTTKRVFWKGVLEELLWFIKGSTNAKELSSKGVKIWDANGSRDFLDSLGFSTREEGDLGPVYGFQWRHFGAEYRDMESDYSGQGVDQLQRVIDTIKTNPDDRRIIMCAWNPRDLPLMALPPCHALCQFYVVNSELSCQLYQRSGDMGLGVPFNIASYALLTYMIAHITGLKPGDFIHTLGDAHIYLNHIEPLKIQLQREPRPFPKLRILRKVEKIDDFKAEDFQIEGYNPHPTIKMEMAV
# T2 sequence (P04818 whole entry, one chain of several): as above
# T1 sequence (P04818 whole entry, one chain of several): as above
binder,measurement,setting,value
"dihydrofolate reductase (DHFR), tagless ligand in QCM-D (enzyme, UniProt P00374 1-187, looked up, dihydrofolate reductase (DHFR); source: recombinant, overexpressed and purified as described previously (Antosiewicz et al., 2015; Skierka et al., 2019); His tag removed with Thrombin CleanCleave Kit) MVGSLNCIVAVSQNMGIGKNGDLPWPPLRNEFRYFQRMTTTSSVEGKQNLVIMGKKTWFSIPEKNRPLKGRINLVLSRELKEPPQGAHFLSRSLDDALKLTEQPELANKVDMVWIVGGSSVYKEAMNHPGHLKLFVTRIMQDFESDTFFPEIDLEKYKLLPEYPGVLSDVQEEKGIKYKFEVYEKND",Kd,[1],12.1 ± 7.86 µM
"dihydrofolate reductase (DHFR), fluorescently labeled, as used in MST (enzyme, UniProt P00374 1-187, looked up, fluorescently labeled (dye and site not stated), dihydrofolate reductase (DHFR); also called labeled DHFR; source: recombinant, overexpressed and purified as described previously (Antosiewicz et al., 2015; Skierka et al., 2019)) MVGSLNCIVAVSQNMGIGKNGDLPWPPLRNEFRYFQRMTTTSSVEGKQNLVIMGKKTWFSIPEKNRPLKGRINLVLSRELKEPPQGAHFLSRSLDDALKLTEQPELANKVDMVWIVGGSSVYKEAMNHPGHLKLFVTRIMQDFESDTFFPEIDLEKYKLLPEYPGVLSDVQEEKGIKYKFEVYEKND",Kd,[2],12.6 ± 0.66 µM
B1,Kd,[3],5.04 ± 0.5 µM
same,Kd,[4],0.32 ± 0.05 µM
B2,Kd,[5],0.28 ± 0.23 µM
